Laboratory results taken from patent US20220177587A1, “METHODS AND USES OF VARIANT CD80 FUSION PROTEINS AND RELATED CONSTRUCTS” (Alpine Immune Sciences, Inc., priority 2018, published 2022).

Experiments:
huPD-L1 = huPD-L1 (Homo sapiens, UniProt Q9NZQ7); experiment: Flow binding to CHO cells stably expressing PD-L1; set-up: huCTLA4 and huPD-L1, full-length mammalian surface expression constructs were generated; expressed in transfected cells; host or cells: CHO cells, lentiviral transduction, sorted to >98% purity; conditions: for PD-L1 Fold change to WT CD80: MFI ratio to WT CD80 ECD-Fc (R&D) at 33.3 nM; for Ratio of PDL1:CD28: binding to PD-L1 compared to binding to CD28
How it was run: (§1)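 Fusion proteins bound to CHO cells stably expressing CTLA4 or PD-L1, or to Jurkat/IL2 reporter cells with endogenous CD28, for 45 min on ice after blocking in PBS/1% BSA. Detection with PE anti-human Fc by flow cytometry; PE MFI per cell type and binding EC50 determined.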

CD28 [1] = target: T1, CD28 (Homo sapiens, UniProt P10747); experiment: Jurkat/IL2 + K562/OKT3/PD-L1 reporter assay; format: cell-based; set-up: host or cells: Jurkat cells expressing an IL-2-luciferase reporter; conditions: K562/OKT3/PD-L1 aAPC, 50 nM; for Relative Luciferase Units (RLU), CD80-Fe Cone 50 nM / Fold Increase over WT CD80-IgV-Fe: Table E8
CD28 [2] = target: T1, CD28; experiment: Flow binding to Jurkat/IL2 reporter cells (CD28); set-up: host or cells: Jurkat cells expressing an IL-2-luciferase reporter; conditions: for CD28 Fold change to WT CD80: MFI ratio to WT CD80 ECD-Fc (R&D) at 33.3 nM
How it was run: as §1

huCTLA4 = huCTLA4 (Homo sapiens, UniProt P16410); experiment: Flow binding to CHO cells stably expressing CTLA4; set-up: huCTLA4 and huPD-L1, full-length mammalian surface expression constructs were generated; expressed in transfected cells; host or cells: CHO cells, lentiviral transduction, sorted to >98% purity; conditions: for CTLA4 Fold change to WT CD80: MFI ratio to WT CD80 ECD-Fc (R&D) at 33.3 nM
How it was run: as §1

CD28 [3] = target: T1, CD28; experiment: Jurkat/IL2 + CHO/OKT3 +/- PD-L1 reporter assay: PD-L1-dependent CD28 costimulation; format: cell-based; set-up: host or cells: Jurkat cells expressing an IL-2-luciferase reporter; conditions: Table E22; Jurkat/IL2 + CHO/OKT3/PD-L1; CD80 Conc 5.0 nM
How it was run: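 Jurkat reporter cells (100,000/well) preincubated 15 min at room temperature with test protein, then cocultured 5 h at 37 °C with CHO aAPCs bearing anti-CD3 scFv (OKT3) with or without PD-L1. Luciferase luminescence (RLU) read after lysis-substrate addition.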

[4] = Table E4, CHO cells stably expressing PD-L1
[5] = Table E4, 33.3 nM variant CD80 IgV-Fc, CHO cells stably expressing CTLA4

Sequence of huPD-L1 (Q9NZQ7 19-290): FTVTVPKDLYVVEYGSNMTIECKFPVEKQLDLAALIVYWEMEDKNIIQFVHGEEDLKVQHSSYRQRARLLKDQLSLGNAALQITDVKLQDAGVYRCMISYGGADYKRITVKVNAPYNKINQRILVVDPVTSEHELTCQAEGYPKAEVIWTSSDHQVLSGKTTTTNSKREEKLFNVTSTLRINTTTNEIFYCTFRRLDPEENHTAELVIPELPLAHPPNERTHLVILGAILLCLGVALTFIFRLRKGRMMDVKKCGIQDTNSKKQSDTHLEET
Sequence of huCTLA4 (P16410 36-223): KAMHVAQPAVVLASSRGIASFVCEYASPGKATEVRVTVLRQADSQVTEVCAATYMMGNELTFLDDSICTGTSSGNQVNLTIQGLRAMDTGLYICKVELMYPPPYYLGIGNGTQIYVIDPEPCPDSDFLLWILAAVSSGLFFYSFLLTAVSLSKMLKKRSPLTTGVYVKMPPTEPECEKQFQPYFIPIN

| Molecule | PD-L1 MFI at 33.3 nM (huPD-L1; Table E3) | PD-L1 MFI at 33.3 nM (huPD-L1; Table E19, CHO cells stably expressing PD-L1) | Relative Luciferase Units (RLU), CD80-Fc Conc. 50 nM (CD28 [1]; Table E7) [RLU] | CD28 MFI at 33.3 nM (CD28 [2]; Table E3) | CD28 MFI at 33.3 nM (CD28 [2]; Table E19, Jurkats (CD28)) | CTLA4 MFI at 33.3 nM (huCTLA4; Table E3, 33.3 nM) | CTLA4 MFI at 33.3 nM (huCTLA4; Table E19, CHO cells stably expressing CTLA4, 33.3 nM) | Relative Luciferase Units (RLU), CD80-Fe Cone 50 nM (CD28 [1]) [RLU] | Relative Luciferase Units (RLU), CD80 Conc 5.0 nM (CD28 [3]) [RLU] | CD28 MFI at 33.3 nM (CD28 [2]; Table E4, Jurkat cells (CD28)) | CD28 MFI at 33.3 nM (CD28 [2]; Table E20, Jurkats (CD28)) | PD-L1 MFI at 33.3 nM (huPD-L1; [4]) | PD-L1 Fold change to WT CD80 (huPD-L1; Table E4) | Ratio of PDL1:CD28 (huPD-L1; Table E4) | Fold Increase over WT CD80-IgV-Fe (CD28 [1]) | CD28 Fold change to WT CD80 (CD28 [2]; Table E4) | CTLA4 MFI at 33.3 nM (huCTLA4; [5]) | CTLA4 Fold change to WT CD80 (huCTLA4; Table E4) |
| --- | --- | --- | --- | --- | --- | --- | --- | --- | --- | --- | --- | --- | --- | --- | --- | --- | --- | --- |
| E35D/M47L/L85Q: variant CD80 IgV-Fc, IgV SEQ ID NO:418 (protein) VIHVTKEVKEVATLSCGHNVSVEELAQTRIYWQKDKKMVLTMMSGDLNIWPEYKNRTIFDITNNLSIVILALRPSDEGTYECVVQKYEKDAFKREHLAEVTLSVKAD | 33200 | 6097 | 2852 | 646 | 46.3 | 336179 | 12909 | – | – | – | – | – | – | – | – | – | – | – |
| A26E/E35D/M47L/A71G (protein) VIHVTKEVKEVATLSCGHNVSVEELEQTRIYWQKDKKMVLTMMSGDLNIWPEYKNRTIFDITNNLSIVILGLRPSDEGTYECVVLKYEKDAFKREHLAEVTLSVKAD | – | – | – | – | – | – | – | 1748 | 766 | 2161 | 236 | – | – | – | – | – | – | – |
| Q33L/E35D/M47I/N48D/A71G (protein, UniProt P33681 35-288, looked up, variant Q33L E35D M47I N48D A71G) T-lymphocyte activation …: VIHVTKEVKEVATLSCGHNVSVEELAQTRIYWLKDKKMVLTMMSGDIDIWPEYKNRTIFDITNNLSIVILGLRPSDEGTYECVVLKYEKDAFKREHLAEVTLSVKADFPTPSISDFEIPTSNIRRIICSTSGGFPEPHLSWLENGEELNAINTTVSQDPETELYAVSSKLDFNMTTNHSFMCLIKYGHLRVNQTFNWNTTKQEHFPDNLLPSWAITLISVNGIFVICCLTYCFAPRCRERRRNERLRRESVRPV | – | – | – | – | – | – | – | 213 | – | 644 | – | 31151 | 2.62 | 48 | 1.0 | 0.04 | 116798 | 0.74 |
| E35D/T41S/M43V/M47I/L70M/A71G (protein, UniProt P33681 35-288, looked up, variant E35D T41S M43V M47I L70M A71G, Fc fusion) T-lymphocyte activation …: VIHVTKEVKEVATLSCGHNVSVEELAQTRIYWQKDKKMVLSMVSGDINIWPEYKNRTIFDITNNLSIVIMGLRPSDEGTYECVVLKYEKDAFKREHLAEVTLSVKADFPTPSISDFEIPTSNIRRIICSTSGGFPEPHLSWLENGEELNAINTTVSQDPETELYAVSSKLDFNMTTNHSFMCLIKYGHLRVNQTFNWNTTKQEHFPDNLLPSWAITLISVNGIFVICCLTYCFAPRCRERRRNERLRRESVRPV | – | – | – | – | – | – | – | 1672 | – | 2698 | – | 12978 | 1.09 | 5 | 8.1 | 0.15 | 249456 | 1.59 |
| R29H/E35D/M43V/M47I/I49V (protein, UniProt P33681 35-288, looked up, variant R29H E35D M43V M47I I49V) T-lymphocyte activation …: VIHVTKEVKEVATLSCGHNVSVEELAQTHIYWQKDKKMVLTMVSGDINVWPEYKNRTIFDITNNLSIVILALRPSDEGTYECVVLKYEKDAFKREHLAEVTLSVKADFPTPSISDFEIPTSNIRRIICSTSGGFPEPHLSWLENGEELNAINTTVSQDPETELYAVSSKLDFNMTTNHSFMCLIKYGHLRVNQTFNWNTTKQEHFPDNLLPSWAITLISVNGIFVICCLTYCFAPRCRERRRNERLRRESVRPV | – | – | – | – | – | – | – | 227 | – | 336 | – | 1590 | 0.13 | 5 | 1.1 | 0.02 | 4694 | 0.03 |
| E35D/M47I/L85Q/D90G (protein, UniProt P33681 35-288, looked up, variant E35D M47I L85Q D90G) T-lymphocyte activation …: VIHVTKEVKEVATLSCGHNVSVEELAQTRIYWQKDKKMVLTMMSGDINIWPEYKNRTIFDITNNLSIVILALRPSDEGTYECVVQKYEKGAFKREHLAEVTLSVKADFPTPSISDFEIPTSNIRRIICSTSGGFPEPHLSWLENGEELNAINTTVSQDPETELYAVSSKLDFNMTTNHSFMCLIKYGHLRVNQTFNWNTTKQEHFPDNLLPSWAITLISVNGIFVICCLTYCFAPRCRERRRNERLRRESVRPV | – | – | – | – | – | – | – | 1438 | – | 4095 | – | 35710 | 3.01 | 9 | 7.0 | 0.23 | 247703 | 1.57 |
| E35D/D46E/M47V/N63D/L85Q (protein, UniProt P33681 35-288, looked up, variant E35D D46E M47V N63D L85Q) T-lymphocyte activation …: VIHVTKEVKEVATLSCGHNVSVEELAQTRIYWQKDKKMVLTMMSGEVNIWPEYKNRTIFDITDNLSIVILALRPSDEGTYECVVQKYEKDAFKREHLAEVTLSVKADFPTPSISDFEIPTSNIRRIICSTSGGFPEPHLSWLENGEELNAINTTVSQDPETELYAVSSKLDFNMTTNHSFMCLIKYGHLRVNQTFNWNTTKQEHFPDNLLPSWAITLISVNGIFVICCLTYCFAPRCRERRRNERLRRESVRPV | – | – | – | – | – | – | – | 1381 | – | 1331 | – | 69780 | 5.88 | 52 | 6.7 | 0.07 | 274320 | 1.74 |
| H18Y/A26E/E35D/M47L/L85Q/D90G (protein, UniProt P33681 35-288, looked up, variant H18Y A26E E35D M47L L85Q D90G) T-lymphocyte activation …: VIHVTKEVKEVATLSCGYNVSVEELEQTRIYWQKDKKMVLTMMSGDLNIWPEYKNRTIFDITNNLSIVILALRPSDEGTYECVVQKYEKGAFKREHLAEVTLSVKADFPTPSISDFEIPTSNIRRIICSTSGGFPEPHLSWLENGEELNAINTTVSQDPETELYAVSSKLDFNMTTNHSFMCLIKYGHLRVNQTFNWNTTKQEHFPDNLLPSWAITLISVNGIFVICCLTYCFAPRCRERRRNERLRRESVRPV | – | – | – | – | – | – | – | 1506 | – | 3540 | – | – | – | – | – | – | 230588 | – |
| V22A/E35D/M47I/Y87N (protein, CD80 v253 ECD) VIHVTKEVKEVATLSCGHNVSAEELAQTRIYWQKDKKMVLTMMSGDINIWPEYKNRTIFDITNNLSIVILALRPSDEGTYECVVLKNEKDAFKREHLAEVTLSVKADFPTPSISDFETPTSNIRRIICSTSGGFPEPHLSWLENGEELNAINTTVSQDPETELYAVSSKLDFNMTTNHSFMCLIKYGHLRVNQTFNWNTTKQEHFPDN | – | – | – | – | – | – | – | 1388 | – | 15299 | – | – | – | – | – | – | 245711 | – |
| V22L/Q27H/E35D/M47I/A71G (protein, CD80 v274 ECD) VIHVTKEVKEVATLSCGHNVSLEELAHTRIYWQKDKKMVLTMMSGDINIWPEYKNRTIFDITNNLSIVILGLRPSDEGTYECVVLKYEKDAFKREHLAEVTLSVKADFPTPSISDFETPTSNIRRIICSTSGGFPEPHLSWLENGEELNAINTTVSQDPETELYAVSSKLDFNMTTNHSFMCLIKYGHLRVNQTFNWNTTKQEHFPDN | – | – | – | – | – | – | – | 1123 | – | 7269 | – | – | – | – | – | – | 151600 | – |
